Residue numbers refer to the chain shown, from its start. Names may count otherwise.
B1: L325R: HA-tagged mouse talin F23 (residues 206-405) mutant L325R expressed by transfection (protein, UniProt P26039 206-405, looked up, variant L325R)
chain: SRDPVQLNLLYVQARDDILNGSHPVSFDKACEFAGFQCQIQFGPHNEQKHKAGFLDLKDFLPKEYVKQKGERKIFQAHKNCGQMSEIEAKVRYVKLARSLKTYGVSFFLVKEKMKGKNKRVPRLLGITKECVMRVDEKTKEVIQEWSLTNIKRWAASPKSFTLDFGDYQDGYYSVQTTEGEQIAQLIAGYIDIILKKKKS
modifications: F2-F3 subdomains HA tag
notes: HA-tagged mouse talin F23 (residues 206-405) mutant L325R expressed by transfection
B2: F23(W359A): talin F23 mutant W359A that strongly inhibits the MD binding site (protein)
chain: B1 chain with R120L, W154A
modifications: left off: small tags and cut ends
B3: S379R: HA-tagged mouse talin F23 (residues 206-405) mutant S379R expressed by transfection (protein, UniProt P26039 206-405, looked up, variant S379R)
chain: B1 chain with R120L, S174R
modifications: F2-F3 subdomains HA tag
notes: HA-tagged mouse talin F23 (residues 206-405) mutant S379R expressed by transfection
B4: S365D: HA-tagged mouse talin F23 (residues 206-405) mutant S365D expressed by transfection (protein, UniProt P26039 206-405, looked up, variant S365D)
chain: B1 chain with R120L, S160D
modifications: F2-F3 subdomains HA tag
notes: HA-tagged mouse talin F23 (residues 206-405) mutant S365D expressed by transfection
B5: wild type F23: F2 and F3 sub-domains (F23) of talin, residues 206-405, wild type (protein, UniProt P26039 206-405, looked up, fragment)
chain: B1 chain with R120L
modifications: F2-F3 subdomains
notes: F2 and F3 sub-domains (F23) of talin, residues 206-405, wild type
B6: Q381V: HA-tagged mouse talin F23 (residues 206-405) mutant Q381V expressed by transfection (protein, UniProt P26039 206-405, looked up, variant Q381V)
chain: B1 chain with R120L, Q176V
modifications: F2-F3 subdomains HA tag
notes: HA-tagged mouse talin F23 (residues 206-405) mutant Q381V expressed by transfection
B7: DOK1: PTB-containing protein, full-length DOK1, transfected into αβPy cells (protein)
chain: MDGAVMEGPLFLQSQRFGTKRWRKTWAVLYPASPHGVARLEFFDHKGSSSGGGRGSSRRLDCKVIRLAECVSVAPVTVETPPEPGATAFRLDTAQRSHLLAADAPSSAAWVQTLCRNAFPKGSWTLAPTDNPPKLSALEMLENSLYSPTWEGSQFWVTVQRTEAAERCGLHGSYVLRVEAERLTLLTVGAQSQILEPLLSWPYTLLRRYGRDKVMFSFEAGRRCPSGPGTFTFQTAQGNDIFQAVETAIHRQKAQGKAGQGHDVLRADSHEGEVAEGKLPSPPGPQELLDSPPALYAEPLDSLRIAPCPSQDSLYSDPLDSTSAQAGEGVQRKKPLYWDLYEHAQQQLLKAKLTDPKEDPIYDEPEGLAPVPPQGLYDLPREPKDAWWCQARVKEEGYELPYNPATDDYAVPPPRSTKPLLAPKPQGPAFPEPGTATGSGIKSHNSALYSQVQKSGASGSWDCGLSRVGTDKTGVKSEGST

What follows are molecules tested against T1, integrin αIIbβ3 (Homo sapiens, UniProt P05106+P08514) (assay: PAC1 binding by flow cytometry in A5 cells transfected with talin F23). Details: CHO cells stably expressing WT human αIIbβ3 (A5 cells), transient transfection with HA-talin F23.
T1 construct: expressed in transfected cells; host or cells: CHO (A5 cells)
Assay type: cell-based
Text: (§1) A-B. CHO cells were transiently transfected with plasmids encoding αIIb and β3, or mutants thereof. In some samples (indicated above) a plasmid encoding a shRNA for talin-1 (Tadokoro et. al. 2003) or a control shRNA was co-transfected with the integrin plasmids. Cells were double stained for integrin αIIbβ3 expression (B-D57) and activated αIIbβ3 (PAC1) and flow cytometry was used to measure the geometric mean fluorescence intensity (F) of PAC1 binding. Non-specific PAC1 binding (F0) was measured in the presence of a competitive antagonist of αIIbβ3, Ro43-5054 and maximal binding (Fmax) was measured in the presence of the activating antibody Anti-LIBS6. Activation index was defined as 100*(F−F0)/(Fmax−F0) (see Experimental Procedures). A. Activation of αIIb(R995A)β3 integrin was diminished in the cells co-transfected with talin-1 knockdown shRNA. Similarly, the β3(Y747A) mutation blocks talin binding to the MD site and the αIIb(R995A)β3(Y747A) integrin is not activated. B. Talin-mediated activation requires specific contacts between talin F3 and the β3 MP region. Depicted is the Activation Index (gray bars) or the αIIbβ3 expression, indicated as fluorescence intensity of D57 staining (black bars). The activating effect of αIIb(R995A) is diminished when it is paired with the β3 MP mutants β3(F727A) or β3(F730A). C-D. CHO cells stably expressing WT human αIIbβ3 (A5 cells), or a high-affinity chimeric integrin (αβPy cells), were transiently co-transfected with vectors for WT or mutant HA-tagged talin F23 and eGFP protein as a transfection marker. PAC1 binding was measured by flow cytometry in the subset of cells expressing GFP. Insets show representative western blots of cell lysates probed with anti-HA antibody and indicate that WT and mutant HA-talin F23 expressed to similar levels. C. Specific PAC1 binding in αIIbβ3-expressing A5 cells transfected with talin F23 mutants relative to that in cells transfected with wild type talinF23 (set as 100). […] D. PAC1 binding in αIIbα6β3β1-expressing αβPy cells transfected with talin F23 or its mutants relative to that in cells transfected with empty vector (set as 100). The MP-contacting talin F23 mutants (L325R, S365D, S379R, Q381V) inhibited activation, whereas the MD-contacting mutant talin F23(W359A) had no significant effect on activation levels. All data are an average of three of more measurements, error bars are standard deviations.
Contacts between talin and the MP region of the β3 cytoplasmic tail may constitute an interaction that is a key to the activation process. To test this concept, the effects of a number of designed mutations, both in the β3 tail and in the talin F3 sub-domain, were investigated. Integrin activation was assessed using the antibody PAC1 and flow cytometry as previously described (Partridge et al., 2005).
For experiments to assess the functional effect of point mutants in the β3 tail, CHO cells were co-transfected with pCDM8 plasmids coding for wildtype or mutant sequences of […] and β3. Transfection was done using the plus reagent and lipofectamine (Life Technologies); 24 hours later cells were stained with B-D57 and PAC1 in the presence and absence of Ro43-5054 or Anti-LIBS6. The biotinylated monoclonal antibody, B-D57 was used to detect expression of αIIbβ3, while PAC1, an activation specific, monoclonal IgM antibody was used to assess the activation state of the αIIbβ3 integrin. This antibody is an authentic ligand for integrin αIIbβ3 (Abrams et al., 1994) and its binding correlates with the binding of natural ligands, such as fibrinogen (Shattil et al., 1985). Cells were analyzed on a FACScan using both B-D57 and PAC1 antibodies as described previously (Partridge et al., 2005). The geometric mean fluorescence intensity (MFI) of PAC1 staining in the presence of Ro43-5054 (2 μM) was used to estimate non-specific PAC1 binding (F0). […]

Molecule | integrin αIIbβ3 activation (PAC1 binding)
B1 | diminished the ability of F23 to activate integrin αIIbβ3
B2 | prevent activation
B3 | diminished the ability of F23 to activate integrin αIIbβ3
B4 | diminished the ability of F23 to activate integrin αIIbβ3
B5 | activated the integrin
B6 | diminished the ability of F23 to activate integrin αIIbβ3

These molecules were tested on αIIbα6β3β1 high-affinity chimeric integrin (αβPy cells) (assay: PAC1 binding by flow cytometry in αβPy cells transfected with talin F23 or DOK1). Details: talin-dependent constitutively active chimeric integrin, transient transfection.
Assay type: cell-based
Text: as §1
A. CHO cells stably expressing a high-affinity chimeric integrin (αβPy cells) were transiently co-transfected with empty vector (pCDNA3.1), WT talin F23 or full-length DOK1; eGFP protein was used as a transfection marker. The level of integrin activation was measured by flow cytometry of harvested cells using PAC1 antibody as described in the legend to FIG. 3. Data are an average of three or more measurements; error bars are standard deviations. B. Overlay of the DOK and talin PTB domains. The critical differences between the two domains are the residues between strands S1 and S2. C. Weighted shift map (see Experimental Procedures) obtained by observing ^1H-^15N HSQC spectra on addition of the β3/PIPKIα peptide to the DOK PTB domain (10:1 molar ratio). Grey columns indicate residues whose peaks experienced severe line broadening in the bound state and could not be assigned.
To investigate this possibility we used αβPy cells, a CHO cell-line expressing a talin-dependent constitutively active chimeric integrin composed of the extracellular and transmembrane domains of αIIbβ3 and the cytoplasmic tails of α6β1 (Baker et al., 1997). We transiently transfected αβPy cells with cDNAs encoding the mutant F23 constructs (L325R, S365D, S379R, or Q381V).
For experiments to assess the functional effect of point mutants in the β3 tail, CHO cells were co-transfected with pCDM8 plasmids coding for wildtype or mutant sequences of βIIb and β3. […]

Molecule | integrin activation (PAC1 binding)
B1 | blocked integrin activation
B2 | had no effect on activation
B3 | blocked integrin activation
B4 | blocked integrin activation
B5 | modestly increased activation
B6 | blocked integrin activation
B7 | inhibited integrin activation

Source: patent US8530621B2, “Combined preparation of a thiazide diuretic and a loop diuretic” (The Regents of the University of California, priority 2007, dated 2013)
